What was measured:
GLP-1 receptor [1] = target: GLP-1 receptor
GLP-1 receptor [2] = target: GLP-1 receptor; remark: listed apart in the source

Substance	EC50, GLP-1 receptor agonistic activity (CRE-luciferase reporter in HEK293 cells) (GLP-1 receptor [1])	EC50 (nM), GLP-1 receptor agonistic activity (CRE-luciferase reporter in HEK293 cells) (GLP-1 receptor [2])
Exendin-4 (peptide)	0.00193 µM	–
[Cys^21(mPEG5000-MAL)] Exendin-4 (peptide)	–	22.5 nM
